Target: T1, human CD147 (human, UniProt P35613)
T1 chain: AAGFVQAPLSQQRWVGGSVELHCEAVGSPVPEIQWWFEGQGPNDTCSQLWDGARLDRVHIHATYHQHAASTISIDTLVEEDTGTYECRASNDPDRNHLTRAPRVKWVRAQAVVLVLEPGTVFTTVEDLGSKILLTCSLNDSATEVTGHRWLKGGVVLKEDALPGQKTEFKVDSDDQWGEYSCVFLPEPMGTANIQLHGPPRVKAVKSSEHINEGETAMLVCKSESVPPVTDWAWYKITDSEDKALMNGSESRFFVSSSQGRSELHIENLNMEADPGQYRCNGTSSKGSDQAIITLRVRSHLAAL
Assay: ELISA

B1: mouse 3A11 (antibody, V domains shown)
VH: EVQLVESGGGLVQPGGSLRLSCAASGFTFSNYWMDWVRQAPGKGLEWVGEIRLKSYNYATHYAASVKGRFTISRDDSKNSVYLQMNSLKTEDTAVYYCTAAGTDYWGQGTLVTVSS
VL: SIVMTQIPKILLVSAGDRVTITCKASQSVRTDVAWYQQKPGQSPKLLIYYSSNRYTGVPDRFTGSGYGTDFTFTISTVQAEDLAVYFCQQDYSSPFTFGSGTKLEIK
Kd: 0.293 nM

Source: patent US20180303952 (published 2018)
